# Source: patent US20100028347A1 (Eli Lilly, published 2010)
# Numbering of substitutions follows the chain as printed.
# B1: anti-VEGFR-1 antibody clone 13G12 (antibody, human IgG1, V domains shown)
# VH: QVQLVESGGGVVQPGRSLRLSCAASGFTFSSYGMHWVRQAPGKGLEWVAVIWYDGSNKYYADSVKGRFTISRDNSKNTLYLQMNSLRAEDTAVYYCARDHYGSGAHYYYYYGMDVWGQGTTVTVSS
# VL: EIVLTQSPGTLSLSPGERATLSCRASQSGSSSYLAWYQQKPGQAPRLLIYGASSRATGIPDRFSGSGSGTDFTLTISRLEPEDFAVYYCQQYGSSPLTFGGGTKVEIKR
# notes: Fully human antibody (gamma heavy chain, kappa light chain) from hybridomas of KM transgenic mice, purified; The light chain entry runs a few residues into the kappa constant region
# B2: anti-VEGFR-1 antibody clone 6F9 (antibody, human IgG1, V domains shown)
# VH: B1 VH with L79V, Y95H, A97T, Y101F
# VL: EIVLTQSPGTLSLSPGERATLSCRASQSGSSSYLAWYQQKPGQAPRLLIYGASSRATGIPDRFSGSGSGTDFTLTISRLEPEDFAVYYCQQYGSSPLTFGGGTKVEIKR
# notes: Fully human antibody (gamma heavy chain, kappa light chain) from hybridomas of KM transgenic mice, purified
# B3: anti-VEGFR-1 antibody clone 15F11 (antibody, V domains shown)
# VH: B1 VH with Y53F, Y107S, M113L, T121S
# VL: not shown
# notes: Fully human antibody (gamma heavy chain, kappa light chain) from hybridomas of KM transgenic mice, purified; The light chain entry runs a few residues into the kappa constant region; also called FI1
# B4: DC101 (antibody, V domains shown)
# VH: EVQLVETGGGLVQPGNSLKLSCATSGFIFSTTWMNWIRQTPGKRLEWLAQIEDKSNNYFISYSESVKGRFTISRDDSKSSVYLQMNNLKEEDTAIYYCSWKYRSNYYFDYWGQGVMVTVSS
# VL: DIVLTQSPALAVSLEQRATISCKTSQNVDYYGISYLHWYQQKPGQQPKLLIYEGSNLASGIPARFSGSGSGTDFTLTIDPVEADDIVTYYCQQSKDYPYTFGAGTKLELK
# B5: human VEGF165 (ligand, UniProt P15692-4 27-191, looked up)
# chain: APMAEGGGQNHHEVVKFMDVYQRSYCHPIETLVDIFQEYPDEIEYIFKPSCVPLMRCGGCCNDEGLECVPTEESNITMQIMRIKPHQGQHIGEMSFLQHNKCECRPKKDRARQENPCGPCSERRKHLFVQDPQTCKCSCKNTDSRCKARQLELNERTCRCDKPRR
# Columns and labels:
# [1] = target: T1, native VEGFR-1 expressed on the cell surface (human, UniProt P17948 27-1338); test: cell-based or functional assay
# T1 sequence (P17948 27-1338): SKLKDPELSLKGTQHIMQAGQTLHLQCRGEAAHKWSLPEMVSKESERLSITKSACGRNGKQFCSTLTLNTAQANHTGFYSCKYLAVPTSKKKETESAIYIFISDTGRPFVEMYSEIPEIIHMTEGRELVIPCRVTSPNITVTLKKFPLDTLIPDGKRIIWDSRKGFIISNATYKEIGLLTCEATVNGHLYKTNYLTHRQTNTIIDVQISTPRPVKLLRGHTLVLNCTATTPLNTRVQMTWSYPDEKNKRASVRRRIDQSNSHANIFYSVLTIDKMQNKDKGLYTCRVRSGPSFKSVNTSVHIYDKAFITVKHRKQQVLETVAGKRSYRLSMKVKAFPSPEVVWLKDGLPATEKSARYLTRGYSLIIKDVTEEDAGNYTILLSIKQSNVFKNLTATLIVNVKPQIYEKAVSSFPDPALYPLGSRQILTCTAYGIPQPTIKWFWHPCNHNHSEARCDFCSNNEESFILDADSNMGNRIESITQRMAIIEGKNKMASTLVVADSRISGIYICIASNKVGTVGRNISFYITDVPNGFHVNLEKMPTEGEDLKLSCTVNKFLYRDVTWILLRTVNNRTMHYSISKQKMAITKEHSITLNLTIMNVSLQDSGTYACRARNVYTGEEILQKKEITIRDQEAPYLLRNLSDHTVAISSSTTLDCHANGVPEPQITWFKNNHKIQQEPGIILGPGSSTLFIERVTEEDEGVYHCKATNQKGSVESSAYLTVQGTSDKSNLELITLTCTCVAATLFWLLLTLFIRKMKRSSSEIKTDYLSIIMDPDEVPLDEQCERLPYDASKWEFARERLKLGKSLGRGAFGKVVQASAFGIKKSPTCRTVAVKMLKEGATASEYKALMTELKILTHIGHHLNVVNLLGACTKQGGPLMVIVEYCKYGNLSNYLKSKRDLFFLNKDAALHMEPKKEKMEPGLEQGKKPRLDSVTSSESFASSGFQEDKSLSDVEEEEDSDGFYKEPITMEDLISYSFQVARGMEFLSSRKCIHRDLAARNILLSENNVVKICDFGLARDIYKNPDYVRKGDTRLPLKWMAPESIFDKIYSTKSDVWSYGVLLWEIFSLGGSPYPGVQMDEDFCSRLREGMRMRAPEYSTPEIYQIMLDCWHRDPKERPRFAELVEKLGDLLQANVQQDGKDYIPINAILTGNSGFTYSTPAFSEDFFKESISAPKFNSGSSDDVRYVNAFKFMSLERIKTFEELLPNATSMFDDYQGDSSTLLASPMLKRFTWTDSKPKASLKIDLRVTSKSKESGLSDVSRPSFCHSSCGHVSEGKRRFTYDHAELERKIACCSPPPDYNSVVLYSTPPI
# [2] = target: T2, soluble recombinant human VEGFR-1 alkaline phosphatase (human, UniProt P17948 27-758); test: ELISA, purified antibody on rhuVEGFR-1 AP coated plate (given as ED50)
# T2 construct: Made in house in stably transfected cells; also called rhuVEGFR-I AP; VEGFR-I AP; not shown: alkaline phosphatase fusion partner
# T2 sequence (P17948 27-758): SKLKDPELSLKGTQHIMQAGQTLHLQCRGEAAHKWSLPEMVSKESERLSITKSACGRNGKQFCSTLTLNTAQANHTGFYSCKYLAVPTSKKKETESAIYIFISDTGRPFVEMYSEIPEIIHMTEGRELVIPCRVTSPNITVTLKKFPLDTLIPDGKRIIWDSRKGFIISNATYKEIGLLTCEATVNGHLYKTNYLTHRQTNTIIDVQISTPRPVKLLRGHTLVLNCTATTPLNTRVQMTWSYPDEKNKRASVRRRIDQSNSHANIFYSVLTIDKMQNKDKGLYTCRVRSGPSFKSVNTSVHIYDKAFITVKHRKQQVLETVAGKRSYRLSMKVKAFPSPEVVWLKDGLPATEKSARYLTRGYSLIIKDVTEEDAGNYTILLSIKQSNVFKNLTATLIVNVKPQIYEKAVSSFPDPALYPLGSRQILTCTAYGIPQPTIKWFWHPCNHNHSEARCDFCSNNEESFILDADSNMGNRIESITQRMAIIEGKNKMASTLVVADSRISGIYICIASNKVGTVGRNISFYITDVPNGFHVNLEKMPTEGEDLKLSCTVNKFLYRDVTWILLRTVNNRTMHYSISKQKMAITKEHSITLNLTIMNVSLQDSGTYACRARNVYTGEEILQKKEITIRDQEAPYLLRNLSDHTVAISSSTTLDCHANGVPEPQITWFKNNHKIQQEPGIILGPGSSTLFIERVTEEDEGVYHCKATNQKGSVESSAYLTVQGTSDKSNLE
# Procedure: (§1) Specifically, hybridoma supernatants or purified antibodies were diluted in PBS with 5% FBS and 0.05% Tween 20 (ELISA buffer) and incubated in rhuVEGFR-I AP or AP coated 96-well microtiter plates for 30 minutes. Plates were washed with the ELISA buffer and incubated with goat anti-mouse IgG-horseradish peroxidase (HRP) conjugate (BioSource International, Camarillo, Calif.) for 30 minutes. TMB (3,3′,5,5′-tetra-methylbenzidine) substrate (Kierkegaard and Perry Lab, Inc., Gaithersburg, Md.) was used for color development following the manufacturer's instruction. The absorbance at 450 nanometers (nm) was read for quantification of binding activity of antibodies. For identification of the hybridomas producing anti-VEGFR-I antibodies, hybridoma supernatants were preincubated with VEGFR-I AP for 1 hour. The mixtures were incubated with the ELISA buffer in VEGF or P1GF coated 96-well microtiter plates for 1 hour. PNPP (p-nitrophenyl phosphate) substrate for AP was used for color development following the manufacturer's instruction. The absorbance at 405 nm was read for quantification of VEGFR-I binding to VEGF or P1GF. Optical density (OD) values were read on a microtiter plate reader (Molecular Devices Corp., Sunnyvale, Calif.). ED50 and IC50 of the antibodies were analyzed using GraphPad Prism 3 software (GraphPad Software, Inc., San Diego, Calif.).
# [3] = target: T3, recombinant extracellular domain of VEGFR-1 (UniProt P17948 27-758, limits assumed); test: SPR, BIAcore 2000, VEGFR-1 extracellular domain immobilised at low density
# T3 construct: extracellular domain
# T3 sequence (P17948 27-758 limits assumed): as the sequence (P17948 27-758) above
# Procedure: Affinities of anti-VEGFR-1 antibody clones 6F9, 13 G12, 15F1 1, 18F1 were determined by plasmon resonance technology using BIAcore 2000 (Pharmacia, Piscataway, N.J.) according to the procedures provided by the manufacturer. Kinetic analyses of the antibodies were performed by immobilization of recombinant extracellular domain of VEGFR-I onto a sensor surface at a low density. The (kₒₙ) and dissociation (kₒ_{^ff}) rates were determined using the BIAevaluation 2.1 software provided by the manufacturer.
# [4] = target: T2, soluble recombinant human VEGFR-1 …; test: blocking ELISA: antibody preincubated with VEGFR-1 AP, binding to PlGF coated plate
# Procedure: as §1
# [5] = target: T2, soluble recombinant human VEGFR-1 …; test: blocking ELISA: antibody preincubated with VEGFR-1 AP, binding to VEGF coated plate
# Procedure: as §1
# [6] = target: T2, soluble recombinant human VEGFR-1 …; test: ELISA: purified antibody on plate-coated rhuVEGFR-1 AP, O.D. 450
# Procedure: as §1
# mouse VEGFR-2 Fc = target: T4, mouse VEGFR-2 Fc (mouse, UniProt P35918 20-762, limits assumed); test: ELISA: antibody dilutions on plate coated with 1 µg/ml mouse VEGFR-2 Fc, HRP secondary, O.D. 450
# T4 construct: not shown: Fc part; not described
# T4 sequence (P35918 20-762 limits assumed): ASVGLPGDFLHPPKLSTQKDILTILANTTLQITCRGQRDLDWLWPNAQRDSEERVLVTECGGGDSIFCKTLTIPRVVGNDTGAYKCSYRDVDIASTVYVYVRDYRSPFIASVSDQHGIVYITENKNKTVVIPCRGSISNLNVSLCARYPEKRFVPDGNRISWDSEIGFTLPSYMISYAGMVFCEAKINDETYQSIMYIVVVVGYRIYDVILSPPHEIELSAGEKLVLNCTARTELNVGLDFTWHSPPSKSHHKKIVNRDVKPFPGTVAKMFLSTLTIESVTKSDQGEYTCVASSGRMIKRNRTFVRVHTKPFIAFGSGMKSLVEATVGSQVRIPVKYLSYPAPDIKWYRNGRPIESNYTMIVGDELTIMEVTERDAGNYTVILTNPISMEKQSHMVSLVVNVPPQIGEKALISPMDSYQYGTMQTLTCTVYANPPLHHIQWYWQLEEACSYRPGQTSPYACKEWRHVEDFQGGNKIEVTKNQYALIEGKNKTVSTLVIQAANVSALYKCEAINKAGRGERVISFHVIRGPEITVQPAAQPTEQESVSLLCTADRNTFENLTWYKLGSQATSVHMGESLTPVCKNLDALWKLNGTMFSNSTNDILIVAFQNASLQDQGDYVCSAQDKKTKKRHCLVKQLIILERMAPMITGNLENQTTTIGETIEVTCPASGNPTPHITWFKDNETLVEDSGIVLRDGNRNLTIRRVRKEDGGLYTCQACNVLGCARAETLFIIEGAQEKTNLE
# Procedure: To determine the specificity of an anti-VEGFR-1 monoclonal antibody to human VEGFR-I, purified antibodies 18F1 were tested in an ELISA-based assay. One μg/ml of recombinant human VEGFR-I Fc, mouse VEGFR-I Fc, mouse VEGFR-2 Fc, or human VEGFR-2 alkaline phosphatase was coated with PBS in a 96-well microtiter plates at 4° C. over night. After wash, the receptor coated plates were blocked with PBS containing 5% Dry Milk and 0.05% Tween 20. Serial dilutions of primary antibody 18F1 to human VEGFR-I, MF1 to mouse VEGFR-I, IC1 1 to human VEGFR-2, or DClOl to mouse VEGFR-2 were incubated in the receptor-coated plates for 30 minutes. After wash secondary anti-primary HRP conjugate antibodies was incubated in the plates for 30 minutes. Plates were washed and incubated with the substrate TMB (3,3′,5,5′-tetra-methylbenzidine) for color development. The absorbance at 450 nm was read as OD values for quantification of binding activity of antibodies. Data were analyzed using a GraphPad Prism Software.
# [7] = target: T1, native VEGFR-1 expressed on the cell …; test: cell-based competition: cold VEGF at 200-fold molar excess over 125I-VEGF (2 ng/ml) on PAE-VEGFR-1 cells, gamma counting
# Procedure: The binding of ¹²⁵1-VEGF to VEGFR-I on cell surface was performed using PAE-VEGFR-I expressing cells. […] Confluent cells were incubated in serum- and growth supplement-free Dulbecco's Modified Eagle Medium (DMEM)ZF-12 medium (Invitrogen, Carlsbad, Calif.) for 24 hours. Cells were rinsed once with ice-cold DMEMZF-12 medium containing 0.025 M HEPES and 1 mgZml bovine serum albumin (BSA). A serial dilution of anti-VEGFR-I antibody 18F1 or cold VEGF at the concentration of a 200-fold molar excess of labeled VEGF was added to each well in the plate and incubated at 4° C. for 1 hour. After wash, ¹²⁵I-VEGF was added at the concentration of 2 ngZml and was incubated at 4° C. for 2 hours on a platform shaker. The cells were washed three times with PBS containing 1 mgZml BSA and 0.25 mM CaCl₂, and were incubated for 5 minutes in the presence of 1% Triton X-100, 1 mgZml BSA, and 0.16% NaN₃ to remove bound VEGF. The soluble content of each well was counted in a gamma counter. The assays were performed in triplicate in at least three independent experiments and the data were analyzed using Prism GraphPad software 3.03.
Binder,Inhibition of PlGF-induced DU4475 cell growth in vitro (IC50) [1] [nM],EC50 [2] [nM],Kd [3] [nM],kon [3] [M⁻¹ s⁻¹],IC50 [4] [nM],IC50 [5] [nM],EC50 [6] [nM],EC50 (read off the curve) (mouse VEGFR-2 Fc) [ng/mL],binding result [7]
B1,66,0.3,0.121,950000,0.82,0.7,,,
B2,43,0.1,0.069,1.01e+06,0.86,0.82,0.114,,
B3,44,0.3,0.07,1.02e+06,0.49,0.73,,,
B4,,,,,,,,~8,
B5,,,,,,,,,binds
